Primed or numbered codes have the meaning given here. Where no end group is shown, it is not given here. [ ]: non-standard residue; d: D form. The star is where a group is joined. Biotin = O=C1N[C@H]2[C@H](CS[C@H]2CCCCC(=O)*)N1; Lys(N3) = [N-]=[N+]=NCCCC[C@H](N)C(=O)O; dPra = C#CC[C@@H](N)C(=O)O; PEG5″ = not defined here; PEG5′ = PEG5 linker
What was measured:
[1] = biological target: E17K GST-PH Domain (Homo sapiens (Human)) (UniProt P31749); assay: ELISA, biotinylated ligand on streptavidin plate, GST-PH Domain titrated, anti-GST detection
[2] = biological target: T1, GFP-tagged E17K PH Domain protein (Homo sapiens (Human), UniProt P31749 1-124); assay: confocal imaging of HEK-293T cells expressing GFP-PH Domain
T1 construct: Cloned from pUNO-hAKT1 and mutated; also called GFP-E17K PHD; E17K mutant GFP-PH domain; not shown: GFP of the TOPO C-terminal GFP mammalian vector
T1 chain: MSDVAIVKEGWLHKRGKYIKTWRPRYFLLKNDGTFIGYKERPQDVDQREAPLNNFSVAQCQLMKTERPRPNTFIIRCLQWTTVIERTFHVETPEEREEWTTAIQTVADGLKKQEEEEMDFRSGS

[3] = biological target: full length Akt1E17K (Homo sapiens (Human)) (UniProt P31749); assay: fluorescence polarization KD values compared
[4] = biological target: full length Akt1E17K (Homo sapiens (Human)) (UniProt P31749); assay: fluorescence polarization, in solution
[5] = biological target: 6His-PEG5-WT 33mer Fragment (wildtype 33-mer epitope without alkyne click handle); assay: fluorescence polarization, in solution
Sequence of 6His-PEG5-WT 33mer Fragment (wildtype 33-mer epitope without alkyne click handle) (peptide, as listed by the source): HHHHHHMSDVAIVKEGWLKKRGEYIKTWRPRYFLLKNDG

[6] = biological target: 6His-PEG5-Mut 33mer Fragment (E17K 33-mer epitope without alkyne click handle); assay: fluorescence polarization, in solution
Sequence of 6His-PEG5-Mut 33mer Fragment (E17K 33-mer epitope without alkyne click handle) (peptide, as listed by the source E17K E17K): as the sequence (peptide, as listed by the source) above, with E23K counted along it

[7] = biological target: E17K GST-PH Domain (Homo sapiens (Human)) (UniProt P31749); assay: ELISA: biotinylated triligand candidate on streptavidin plate, GST-PH Domain titrated, anti-GST-HRP detection
[8] = biological target: full length Akt1E17K (Homo sapiens (Human)) (UniProt P31749); assay: fluorescence polarization in solution, full-length Akt1 titrated

B1: Biotin-PEG5-ivdae(SEQ ID NO: 78)-yleaf(SEQ ID NO: 43)-yksy(SEQ ID NO: 76) triligand (peptide)
peptide 1: [dI][dV][dD][dA][dE]
peptide 2: [Lys(N3)][dY][dL][dE][dA][dF][dPra]
peptide 3: [dY][dK][dS][dY]
modifications: not fully specified (N-terminus, C-terminus); also: triazole to a chain's N/C-terminus, triazole to a chain's N/C-terminus
[1]
  EC50: 45 nM

B2: PEG5-TAT-Cy5 (peptide)
peptide: [PEG5″]YGRKKRRQRR-Cy5
notes: Control without the yleaf anchor; also called blank of PEG5-TAT-Cy5; control with no anchor ligand peptide
[2]
  binding result: no binding (tested: 50 nM)

## {Biotin-PEG5′}-[dY][dL][dE][dA][dF] (not fully specified (C-terminus)) [Biotin-PEG5-yleaf(SEQ ID NO: 43)-Pra anchor ligand]
[1]
  EC50: 61 nM

## [dY][dL][dE][dA][dF] (also: fluorescence polarization label not described) [yleaf (SEQ ID NO: 43) anchor ligand 4]
[3]
  selectivity for E17K relative to WT (fold (E17K:WT)): 10
[4]
  Kd: 54 nM
[5]
  Kd: 2800 nM
[6]
  Kd: 328 nM

B3: triligand candidate iryrn (iryrn-yleaf-yksy) (peptide)
peptide 1: [dI][dR][dY][dR][dN]
peptide 2: [Lys(N3)][dY][dL][dE][dA][dF][dPra]
peptide 3: [dY][dK][dS][dY]
modifications: not fully specified (N-terminus, C-terminus); also: triazole to a chain's N/C-terminus, triazole to a chain's N/C-terminus
[7]
  EC50 (read off the curve): 10 nM

B4: yleaf(SEQ ID NO: 43)-Tz-yksy(SEQ ID NO: 76) biligand, N-terminal PEG5-biotin (peptide)
peptide 1: [dY][dL][dE][dA][dF]
peptide 2: [dY][dK][dS][dY]
modifications: not fully specified (N-terminus, C-terminus, bridges); also: triazole to a chain's N/C-terminus
[1]
  EC50: 19 nM

B5: triligand 9 (ivdae-yleaf-yksy, form used in fluorescence polarization) (peptide)
peptide 1: [dI][dV][dD][dA][dE]
peptide 2: [dY][dL][dE][dA][dF]
peptide 3: [dY][dK][dS][dY]
modifications: not fully specified (N-terminus, C-terminus); also: fluorescence polarization label, not described, triazole to a chain's N/C-terminus, triazole to a chain's N/C-terminus
[8]
  EC50 (read off the curve): 100 nM

Source: patent US20180072772A1 (CALIFORNIA INSTITUTE OF TECHNOLOGY, published 2018)
